Data published in article PMC12133150.

Target: TET2 (UniProt Q6N021)
Assay: co-IP of transfected HNF4α with TET2
Settings: reference: wild type; sites S313

Q: How did the “binding against the reference” value turn out when HNF4α (from UniProt P41235) S313A was run?
A: stronger
